Assay [1] concerns the target T1, recombinant human CD163 protein (hCD163-Avi-His6, U-Protein Express BV) (human, UniProt Q86VB7 42-1050, limits assumed, site-specifically biotinylated on the Avi tag in the ELISA format).
T1 construct: Bought recombinant protein; also called hCD163 protein; recombinant hCD163; not shown: Avi tag and His6 tag
Briefly: ELISA-format binding to hCD163-Avi-His6, bound radioactivity by gamma counter (FIG. 9A); radiolabeled; recombinant hCD163 protein (FIG. 9A). The source says: (§1) FIG. 9. Determination of single domain antibody binding affinities after NOTA-conjugation via ELISA and a cell-binding study. (A) Binding of different concentrations of the ⁶⁸Gallium-labeled anti-CD163 single domain antibody (“[⁶⁸Ga]Ga-NOTA-anti-CD163 Nb”) to the human CD163-Avi-Hexahistine protein, compared to binding of a control irrelevant ⁶⁸Gallium-labeled single domain antibody (“[⁶⁸Ga]Ga-NOTA-Irr Nb”) (B) Single domain antibody binding of different concentrations of the […] anti-CD163 single domain antibody to HEK293T cells overexpressing mouse CD163.
(§2) Affinity determination of the [⁶⁸Ga]Ga-NOTA-anti-CD163 sdAb via ELISA was performed as described in the previous paragraph. The radioactive sdAb binding on the hCD163-Avi-His6 protein was measured via a γ-counter.
(In general: An ELISA detects its analyte on a solid surface through an enzyme-linked reagent.)

Assay [2] deals with T1, recombinant human CD163 protein …. In words: ELISA-format binding of radiolabeled sdAb to human CD163-Avi-His6 protein, read by gamma-counter.
From the text: as §1, §2

Assay [3] deals with T2, human CD163 on HEK293T cells overexpressing hCD163 (human, UniProt Q86VB7 42-1156).
T2 construct: whole, on cells; also called HEK hCD163+ cells; HEK293T hCD163+ cells
Briefly: flow cytometry on HEK293T hCD163+ cells. The source says:
FIG. 2. Binding of the CD163-targeting single domain antibody (23766) to HEK293T cells overexpressing the hCD163 or mCD163 protein. A) Binding of different concentrations of the CD163-specific single domain antibody 23766 or an irrelevant single domain antibody (“Irr Nb”; R3b23) to HEK293T cells overexpressing (A), hCD163 or (B) mCD163 protein. Binding was detected as mean fluorescent intensity (MFI) via the C-terminal His-tag and a fluorescent labeled anti-His antibody using flow cytometry.
Serial dilutions of the CD163-targeting sdAb and of the NOTA-conjugated anti-CD163 sdAb were incubated with 500.000 HEK293T cells overexpressing hCD163 or mCD163 in FACS buffer (HBSS (Gibco) supplemented with 1% FBS and 2 mM EDTA (Duchefa Biochemie, Haarlem, The Netherlands)) for 1 h at 4° C. NOTA-sdAb binding was detected by incubation of the cells with a PE tagged anti-VHH Ab (1:500 in FACS buffer, Genscript, Piscataway, NJ, USA) for 30 min at 4° C. […] Next, sdAb binding was detected by incubation of the cells with an Alexa Fluor®-488 tagged anti-HA antibody (1:1000 in FACS buffer, clone 16B12, Biolegend, San Diego, CA, USA) for 30 min at 4° C. Again, cells were washed once with FACS buffer. sdAb binding was determined using the FACS CANTO II analyser (BD Biosciences, Franklin Lakes, NJ, USA). The mean fluorescent intensity of sdAb binding was determined using FlowJo version 10.
A general note: In flow cytometry, cells or beads pass a laser one at a time.

Assay [4] deals with T1, recombinant human CD163 protein …. In words: SPR (Biacore T200), recombinant hCD163 protein. The protocol: (§3) The affinity of purified CD163-targeting sdAb and of the NOTA-conjugated anti-CD163 sdAb to recombinant hCD163 and mCD163 protein (U-Protein Express BV) was determined using the BIACORE-T200 (GE Healthcare, Freiburg, Germany). Surface plasmon resonance measurements were performed at 25° C. with HEPES buffered saline (HBS, 20 mM of HEPES pH 7.4, 150 mM of NaCl, 3.4 mM of EDTA 0.05% Tween-20) running buffer. The sdAbs were injected consecutively in 2-fold serial dilutions, from 250 to 1 nM. The association step was 100 s, the dissociation step was 200 s, and the two-step regeneration of 35 s at 30 μL·min-1, using 100 mM glycine at pH 3.0, was performed. Local curve fitting analysis was performed using the BIACORE evaluation software (GE Healthcare) by fitting the obtained sensorgrams to theoretical curves, assuming 1-1 binding geometries. For the determination of the equilibrium dissociation constant, the ratio of the association and dissociation rate constants were determined.
Background: Surface plasmon resonance follows binding to a sensor surface in real time, without labels.

For assay [5], the target named is T2, human CD163 on HEK293T cells …. Briefly: flow cytometry on HEK293T hCD163+ cells; mean ± S.D. of at least 3 independent experiments. As for the experimental part:
Serial dilutions of the CD163-targeting sdAb and of the NOTA-conjugated anti-CD163 sdAb were incubated with 500.000 HEK293T cells overexpressing hCD163 or mCD163 in FACS buffer (HBSS (Gibco) supplemented with 1% FBS and 2 mM EDTA (Duchefa Biochemie, Haarlem, The Netherlands)) for 1 h at 4° C. NOTA-sdAb binding was detected by incubation of the cells with a PE tagged anti-VHH Ab (1:500 in FACS buffer, Genscript, Piscataway, NJ, USA) for 30 min at 4° C. Cells were washed once with FACS buffer. Next, sdAb binding was detected by incubation of the cells with an Alexa Fluor®-488 tagged anti-HA antibody (1:1000 in FACS buffer, clone 16B12, Biolegend, San Diego, CA, USA) for 30 min at 4° C. Again, cells were washed once with FACS buffer. sdAb binding was determined using the FACS CANTO II analyser (BD Biosciences, Franklin Lakes, NJ, USA). The mean fluorescent intensity of sdAb binding was determined using FlowJo version 10.

Assay [6] concerns the target T1, recombinant human CD163 protein …. In words: SPR, recombinant hCD163 protein; mean ± S.D. of at least 3 independent experiments; mean ± S.D of at least 3 independent experiments (Table 1B), not the single value of Table 1A. As for the experimental part:
as §3

For assay [7] the target is unchanged. Briefly: binding to recombinant hCD163 protein (SPR per paragraph 101); NOTA-conjugated, not radiolabeled; recombinant hCD163 protein. The protocol: as §3

Consider three molecules from patent US20260234282A1 (VIB VZW, published 2026).

T1 sequence (Q86VB7 42-1050 limits assumed): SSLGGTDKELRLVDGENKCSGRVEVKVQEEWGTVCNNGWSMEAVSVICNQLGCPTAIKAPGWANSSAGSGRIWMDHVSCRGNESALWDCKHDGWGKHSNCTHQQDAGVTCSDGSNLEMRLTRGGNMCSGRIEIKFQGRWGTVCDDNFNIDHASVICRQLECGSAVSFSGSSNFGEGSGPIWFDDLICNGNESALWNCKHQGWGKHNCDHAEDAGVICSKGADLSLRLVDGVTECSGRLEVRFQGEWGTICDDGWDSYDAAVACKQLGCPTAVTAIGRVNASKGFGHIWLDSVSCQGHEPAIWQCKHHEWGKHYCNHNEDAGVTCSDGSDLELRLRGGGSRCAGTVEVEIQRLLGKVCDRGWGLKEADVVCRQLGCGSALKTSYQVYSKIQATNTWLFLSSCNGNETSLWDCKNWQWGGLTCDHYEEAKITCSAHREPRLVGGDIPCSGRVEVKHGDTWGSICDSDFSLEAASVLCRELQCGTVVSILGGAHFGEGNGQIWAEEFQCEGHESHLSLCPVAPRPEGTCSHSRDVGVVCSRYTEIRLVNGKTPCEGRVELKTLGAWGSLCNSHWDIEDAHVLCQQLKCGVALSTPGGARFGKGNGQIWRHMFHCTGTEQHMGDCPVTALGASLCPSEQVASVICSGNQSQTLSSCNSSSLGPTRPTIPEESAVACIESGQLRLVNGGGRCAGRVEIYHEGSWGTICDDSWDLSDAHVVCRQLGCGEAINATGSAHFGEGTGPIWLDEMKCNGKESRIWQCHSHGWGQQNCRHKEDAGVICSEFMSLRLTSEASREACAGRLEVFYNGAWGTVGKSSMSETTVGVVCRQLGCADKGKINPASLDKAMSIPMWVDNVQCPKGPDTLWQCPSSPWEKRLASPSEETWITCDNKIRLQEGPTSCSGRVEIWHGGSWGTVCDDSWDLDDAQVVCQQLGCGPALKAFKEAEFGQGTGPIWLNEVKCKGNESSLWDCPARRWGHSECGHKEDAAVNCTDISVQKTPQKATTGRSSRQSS
T2 sequence (Q86VB7 42-1156): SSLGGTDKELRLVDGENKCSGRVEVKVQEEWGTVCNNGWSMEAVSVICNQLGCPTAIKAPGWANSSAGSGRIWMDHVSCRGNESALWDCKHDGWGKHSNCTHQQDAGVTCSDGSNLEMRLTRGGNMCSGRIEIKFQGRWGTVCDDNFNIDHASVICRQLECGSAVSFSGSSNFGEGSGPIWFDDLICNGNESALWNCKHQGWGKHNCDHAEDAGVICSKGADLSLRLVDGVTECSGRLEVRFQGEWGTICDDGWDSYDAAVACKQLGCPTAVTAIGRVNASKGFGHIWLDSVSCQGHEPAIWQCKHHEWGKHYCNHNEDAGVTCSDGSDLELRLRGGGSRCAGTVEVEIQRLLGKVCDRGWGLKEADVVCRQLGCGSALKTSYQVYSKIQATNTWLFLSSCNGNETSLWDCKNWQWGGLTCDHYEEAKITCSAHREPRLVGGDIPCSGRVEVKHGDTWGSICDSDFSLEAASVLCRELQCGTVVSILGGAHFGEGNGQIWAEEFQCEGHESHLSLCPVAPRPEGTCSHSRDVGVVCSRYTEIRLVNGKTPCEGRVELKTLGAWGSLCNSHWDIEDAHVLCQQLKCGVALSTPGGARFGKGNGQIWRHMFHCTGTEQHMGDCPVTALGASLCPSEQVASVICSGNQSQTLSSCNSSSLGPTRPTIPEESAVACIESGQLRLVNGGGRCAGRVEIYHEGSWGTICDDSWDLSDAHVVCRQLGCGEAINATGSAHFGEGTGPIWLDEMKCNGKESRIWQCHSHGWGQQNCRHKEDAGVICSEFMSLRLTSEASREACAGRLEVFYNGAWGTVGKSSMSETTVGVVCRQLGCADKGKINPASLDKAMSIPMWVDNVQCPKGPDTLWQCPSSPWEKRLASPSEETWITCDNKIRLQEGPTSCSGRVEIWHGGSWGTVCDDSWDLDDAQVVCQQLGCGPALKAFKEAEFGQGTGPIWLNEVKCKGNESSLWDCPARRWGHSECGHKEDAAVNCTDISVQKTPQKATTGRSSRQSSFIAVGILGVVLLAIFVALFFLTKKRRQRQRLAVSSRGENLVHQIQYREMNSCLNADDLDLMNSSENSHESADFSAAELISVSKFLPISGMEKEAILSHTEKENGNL

B1: [68Ga]Ga-NOTA-anti-CD163 single domain antibody (VHH)
VHH: DVQLVESGGGLVQPGGSLRLSCAASGITFSSYAVAWFRQASGKEREFVAFIGWDGDTTYYVDSVKGRFTISRDNAKNMVYLQMNSLKPDDTAIYYCARHKTLWRSSWDNRPVQYDYWGQGTQVTVSS
modifications: p-SCN-Bn-NOTA randomly conjugated to lysines, chelating 68Ga
notes: Radiolabeled form of the NOTA conjugate of the lead anti-CD163 sdAb; also called 68Gallium-labeled anti-CD163 single domain antibody; [68Ga]Ga-NOTA-anti-CD163 Nb
Usually Kd stands for a measure of binding affinity in units of concentration. The EC50 (read off the curve) is the midpoint of the concentration-response curve. B1: the dissociation constant Kd in assay [1] is 9.11 nM. In addition, the “EC50 (read off the curve)” value in assay [2] is ~7 nM.

B2: CD163-targeting single domain antibody 23766 (VHH, not shown: small tags and cut ends)
VHH: B1 VHH
notes: Llama-derived sdAb cloned in the pMECS phage vector; also called sdAb 23766; sdAb23766
B2: the Kd in assay [3] is 2.5 nM; in assay [4], 3.5 nM; in assay [5], 11.3 nM; in assay [6], 0.5 nM.

B3: NOTA-conjugated anti-CD163 single domain antibody (VHH)
VHH: B1 VHH
modifications: p-SCN-Bn-NOTA randomly conjugated to lysines; 2.32±0.12 chelator per single domain antibody
notes: The lead anti-CD163 sdAb (23766) conjugated to NOTA; also called NOTA-single domain antibody; NOTA-sdAb
Consider B3, for which the Kd in assay [7] is 1.55 nM.
